Our source for the Percentage of ELISA Signal Intensity Retained After Physical Stress Challenges and antigen-binding activity retained against the original untreated protein values is patent publication US20250387465A1.

For test [1], the target named is ferritin-PreF fusion protein RSV-PreF-C-NP (respiratory syncytial virus (Pre-F part); species of the ferritin not stated). The experiment in a line: ELISA, fusion protein coated, F protein antibody 1:1500 as primary; protein kept 1 h at pH 3.8, 25 C; against untreated protein; mean of 10- to 10000-fold dilutions.
The target is the same in test [2]. The test is described as follows: ELISA, fusion protein coated, F protein antibody 1:1500 as primary; protein kept 1 h at pH 10, 25 C; against untreated protein; mean of 10- to 10000-fold dilutions.
The target in test [3] is ferritin-PreF fusion protein RSV-PreF-H-NP (respiratory syncytial virus (Pre-F part); species of the ferritin not stated). The test is described as follows: ELISA with F protein antibody after 1 h at pH 3.8, pH 10, 50 C or 70 C.
Test [4] concerns the target ferritin-PreF fusion protein RSV-PreF-E-NP (respiratory syncytial virus (Pre-F part); species of the ferritin not stated). The description is as above.
Test [5] deals with ferritin-PreF fusion protein RSV-PreF-A-NP (respiratory syncytial virus (Pre-F part); species of the ferritin not stated). The description is as above.
Test [6] concerns the target ferritin-PreF fusion protein RSV-PreF-B-NP (respiratory syncytial virus (Pre-F part); species of the ferritin not stated). The test is described as above.
Test [7] concerns the target ferritin-PreF fusion protein RSV-PreF-F-NP (respiratory syncytial virus (Pre-F part); species of the ferritin not stated). The test is described as above.
Test [8] has as its target ferritin-PreF fusion protein RSV-PreF-D-NP (respiratory syncytial virus (Pre-F part); species of the ferritin not stated). The description is as above.
In test [9] the target is ferritin-PreF fusion protein RSV-PreF-G-NP (respiratory syncytial virus (Pre-F part); species of the ferritin not stated). The description is as above.
The target of test [10] is ferritin-PreF fusion protein RSV-PreF-C-NP (respiratory syncytial virus (Pre-F part); species of the ferritin not stated). Described as above.
Test [11] has the same target. The experiment in a line: ELISA, fusion protein coated, F protein antibody 1:1500 as primary; protein kept 1 h at pH 7.4, 25 C (untreated reference); mean of 10- to 10000-fold dilutions.
For test [12] the target is unchanged. The experiment in a line: ELISA, fusion protein coated, F protein antibody 1:1500 as primary; protein kept 1 h at 50 C, pH 7.4; against untreated protein; mean of 10- to 10000-fold dilutions.
Test [13] shares this target. The experiment in a line: ELISA, fusion protein coated, F protein antibody 1:1500 as primary; protein kept 1 h at 70 C, pH 7.4; against untreated protein; mean of 10- to 10000-fold dilutions.

Take “F protein antibody (PujianBiotech (Wuhan), Cat #62814)”: the Percentage of ELISA Signal Intensity Retained After Physical Stress Challenges in test [1] came to 77.3%; in test [2], 83.6%; in test [11], 100%; in test [12], 91.2%; in test [13], 77.1%. Further, the antigen-binding activity retained against the original untreated protein in [3], in [4], in test [5], in [6], in [7] and in test [8] was greater than 75% in each case. The antigen-binding activity retained against the original untreated protein in [9] and in test [10] was greater than 75% in each case.
